Experimental data taken from patent publication US10752881B2, “Trans-differentiation of differentiation cells” (Helmholtz Zentrum München-Deutsches Forschungszentrum für …, priority 2014, dated 2020).
Residues, ends and D or L forms follow the SMILES beside them. *: point of attachment. Cbz = O=C(OCc1ccccc1)*; CH2F = FC*

Tests used:
[1] = test system: postnatal mouse astrocytes; details: for effect on reprogramming efficiency of astrocytes: Ascl1-transfected, 4 days of calcitriol treatment
Procedure: (C) Histogram of astroglial cultures transfected with Ascl1-RFP-encoding plasmid alone or in combination with WT-Bcl-2, EE-Bcl-2 or A-Bcl-2 at 4 days post-transfection (DPT). The number of transfected cells (RFP+) at final time point (4 DPT) was normalized to the initial number of transfected cells (1 DPT) to calculate the % of survival. The % of neuronal conversion was analysed by β-III-tubulin immunostaining and normalized to total number of RFP+ cells at the end of the experiment. Error bars indicate ±SD. *p<0.05, **p<0.01; ANOVA Tukeys post-test.
A, Quantifications at 5 DPT (days post-transfection) showing the effect of the inhibitor of ferroptosis, α-toc and the inhibitor of apoptosis, ZVAD in survival/efficiency of conversion of astroglial cells transfected with Ascl1-RFP.
C, Percentage of neurons in astroglial cells transfected with Ascl1-encoding plasmid alone or in combination with Bcl-2 and/or Vdr at 5 DPT after 4 days of treatment with calcitriol or untreated.
After removal of the meninges, grey matter tissue was dissected from P5-P7 cerebral cortex of C57BL/6J mice and dissociated mechanically. Subsequently, cells were centrifuged for 5 min at 1000 rpm, re-suspended, and plated in medium consisting of DMEM/F12 (Gibco), 3.5 mM glucose (Sigma), 10% fetal calf serum (Gibco), 5% horse serum (Gibco), penicillin/streptomycin (Gibco) and supplemented with B27 (Gibco), 10 ng/mL epidermal growth factor (EGF, Roche) and 10 ng/mL fibroblast growth factor 2 (FGF2, Roche). After one week expansion cells were harvested using trypsin/EDTA (Gibco) and plated onto poly-D-lysine (Sigma-Aldrich) coated glass coverslips in 24-well plates (BD Biosciences) or directly onto the plastic for time lapse experiments at a density of 60,000 cells per well in the same medium. After 24 hours cells were either transfected with plasmid or infected with retroviral vectors and after further 24 hours medium was changed to differentiation medium composed of DMEM/F12 high glucose with GlutaMAX, penicillin/streptomycin and B27 supplement (Gibco) to allow neuronal differentiation.
For transfection DNA-liposome complexes were prepared in Optimem medium (Invitrogen) using the retroviral plasmids described below and Lipofectamine 2000 (Invitrogen). Astrocyte cultures were exposed to DNA-liposome complexes at a concentration of 0.5 μg DNA per 400 μl of Optimem medium for 4 hours and cultured after that in the differentiation medium as above.
Cells were fixed in 4% paraformaldehyde (PFA) in phosphate-buffered saline (PBS) for 10 min at room temperature (RT), washed in PBS and pretreated in 0.5% Triton X-100 in PBS for 30 min, followed by incubation in 2% BSA and 0.5% Triton X-100 in PBS for 30 min. Primary antibodies were incubated on specimen overnight at 4° C. in 2% BSA, 0.5% Triton X-100 in PBS.

[2] = test system: adult human fibroblasts; test: Neuronal reprogramming of adult human fibroblasts; format: cell-based; details: for effect on reprogramming efficiency of human fibroblasts: combination Ascl1/Bcl-2/Vdr, 60 DPI
From the text: To determine whether Bcl-2 would also efficiently enhance reprogramming into neurons in cells from other species, we used fibroblasts obtained from a person that were expanded and transduced as described above with the retroviral vector encoding Ascl1 and RFP alone or in combination with a second vector encoding the human BCL-2 (hBCL-2) and the reporter GFP.
Primary cultures of human skin fibroblasts were established from 3 mm diameter full thickness punch biopsy specimens which were mechanically dissociated before plating. […] For reprogramming experiments cells were plated on coverslips in 24-well plates as described above for astrocytes and 48 hours after infection medium was changed to DMEM high glucose with GlutaMAX and 1% fetal calf serum, penicillin/streptomycin and B27 supplement (Gibco). During the reprogramming process, medium was replaced by conditioned-astrocyte medium every 3 days. Conditioned-astrocyte medium is obtained by growing astroglial culture with differentiation medium (see Cell cultures of astroglia from the postnatal mouse cerebral cortex above) during minimum of 2 days. Then the medium is collected from astrocytes and used for reprogramming of the human cells.
For the expression of neurogenic transcription factors we used self-inactivating retroviral vectors containing the actin promoter with cytomegalovirus enhancer (pCAG) driving the expression of the gene of interest (flag/myc-Ascl1, flag-Neurog2, Bcl-2 or Dlx-2) linked to a fluorescent reporter by internal ribosomal entry site (IRES) as previously described (Heinrich et al., 2011). The mouse version of Bcl-2 cDNA was obtained from Source BioScience (IRAVp968H01145D; pCMV-SPORT6.1-Bcl-2) and the human cDNA version (h-Bcl-2) from addgene (Plasmid number 8793; pMIG-Bcl-2-IRES-GFP) to generate RV-pCAG-flag/myc-Ascl1-IRES-Bcl-2, RV-pCAG-flag-Neurog2-IRES-Bcl-2 or RV-pCAG-Bcl-2-IRES-GFP, which encodes for both Bcl-2 and the reporter GFP. The Bcl-2 mutants A-Bcl-2 and EE-Bcl-2 were produced by directed mutagenesis with the oligos 5′-[…]-3′ (SEQ ID NO: 18) (and complementary (SEQ ID NO: 20)) and 5′-[…]-3′ (SEQ ID NO: 19) (and complementary (SEQ ID NO: 21)) respectively, to generate the vectors pCMV-SPORT6.1-A-Bcl-2, RV-pCAG-Ascl1-IRES-A-Bcl-2 and RV-pCAG-Neurog2-IRES-A-Bcl-2 and the corresponding EE-Bcl-2 versions. Mutations were verified by sequencing. The murine Vdr was obtained from Sino Biological (MG51106-G, Vector pGEM-T) and sub-cloned in the retroviral vector to generate RV-pCAG-Vdr-IRES-GFP.

[3] = test system: reactive glial cells; test: In vivo conversion of reactive glial cells into neurons after stab wound injury; details: for acquisition of neuronal marker NeuN by singly transduced cells: single GFP+ or RFP+ cells
From the text: A, Experimental protocol for stab wound injury and subsequent infection with retroviral vectors (Neurog2/RFP and Bcl-2/GFP) or treatment with calcitriol, analysed at 10 or 20 days post-infection (DPI).
To highlight the relevance of our findings we next tested the efficiency of the methods described above in vivo. For that, we performed stab wound injury followed by injection of retroviral vectors encoding Neurog2-IRES-RFP and Bcl-2-IRES-GFP next to the injury site (FIG. 7A) using a previously described protocol (see Heinrich et al., 2014). Control infected cells were glial in nature, mostly NG2+ cells of the oligodendrocyte lineage or S100b/GFAP+ astrocytes as described before (Heinrich et al., 2014). […] To examine whether key metabolic constraints observed to be important for fate conversion in vitro were also relevant in vivo we tested activation of the Vitamin D receptor pathway by the ligand calcitriol.
Operations were performed in accordance with the policies of the state of Bavaria under license number 55.2-1-54-2532-171-11. A unilateral stab wound lesion (1 mm long, 0.6 mm deep from the dura mater) was performed in the right neocortex with a 19 gauge-thick lancet without injuring the cortical white matter, as previously described (Sirko et al. 2013; Simon et al. 2011). Three days later, 0.5-1 μl of retroviral suspension (Neurog2-IRES-RFP and Bcl-2-IRES-GFP, 1:1) was injected in the site of the lesion with a glass capillary connected to a microinjector (Nanoliter2000+Sys-Micro4, World Precision Instrument), at a rate of 30-60 nl/min. The needle was retracted 5 minutes after completing the injection. When indicated in the text, 200 μl of Calcitriol (Tocris) diluted in corn oil (final concentration of 1 ng/μl) were administered through oral gavage 2 days after the retroviral injection. The dosage was determined according with previous publications (Nashold et al. 2013).
Animals were anesthetized and transcardially perfused with 1× phosphate-buffered saline (PBS), followed by 4% paraformaldehyde (PFA) in PBS. Brains were postfixed for 2 hours, washed twice with PBS and embedded in 4% agarose/water. Finally, 60 μm-thick coronal sections were cut using a vibrating microtome (Leica).

[4] = test system: Mouse embryonic fibroblasts (MEFs); test: Fibroblast-to-neuron reprogramming of MEFs with retroviral vectors, β-III-tubulin immunostaining; format: cell-based
[5] = test system: astroglia isolated from mouse cerebral cortex at postnatal day 5-7; test: Continuous single cell live imaging of Ascl1-mediated astrocyte-to-neuron reprogramming; format: cell-based; details: for increase of proportion of cells successfully completing reprogramming into neurons: Ascl1 + Bcl-2 vs Ascl1 only
From the text: In order to identify the cellular mechanisms of neuronal reprogramming, astroglia isolated from mouse cerebral cortex at postnatal day 5-7 were transfected with an Ascl1-encoding vector thereby targeting non-proliferating cells in addition to those transduced by approaches such as MLV-based retroviral vectors that require proliferation and break-down of the nuclear envelope for successful gene transfer. Our transfection protocol (Heinrich et al., PLoS biology 8, e1000373 (2010); Heinrich et al., Nature protocols 6, 214-228 (2011)) enables cells labelled by red fluorescent protein (RFP) 24 hours after transfection to be subject to continuous live imaging for the main phase of reprogramming (i.e. 6 days). Glial and neuronal cells were identified by their morphology, with the former displaying a flat astrocyte-like morphology and the latter with a round cell soma and thin processes (monopolar, bipolar and multipolar) at least 3× longer than the cell soma. This morphology-based classification was confirmed by post-imaging immunostaining (FIG. 1A). Few of the cells transduced with Ascl1 divided during the 150 hours observation (15%: FIG. 1E). Thus, the vast majority of direct neuronal reprogramming occurs in the absence of proliferation in this system.
Time-lapse video microscopy was performed with a cell observer (Zeiss) at a constant temperature of 37° C. and 8% CO2. Phase contrast images were acquired every 5 minutes, and fluorescence pictures every 4-6 hours for 6.5-7.5 days using a 10× phase contrast objective (Zeiss), and an AxioCamHRm camera with a self-written VBA module remote controlling Zeiss AxioVision 4.7 software (Rieger and Schroeder, Journal of cellular biochemistry 108, 343-352 (2009)). Movies were assembled using Image J 1.42q (National Institute of Health, USA) software and are played at speed of 3 frames per second.

[6] = test system: vitamin d receptor (vdr); test: Vdr expression during neuronal reprogramming (immunostaining); format: cell-based; details: during neuronal reprogramming with Ascl1, 5 DPI
Procedure: A, Percentage of cells expressing Vdr in cultures infected with Ascl1-encoding vector alone or Ascl1+A-Bcl-2 at 5 DPI. Vdr presence was determined by immunostaining (B). Note that Bcl-2 increases the proportion of cells expressing endogenous Vdr during neuronal reprogramming.

[7] = astroglial cells transfected with Ascl1-RFP, 5 DPT

Molecule: COC(=O)C[C@H](NC(=O)[C@H](C)NC(=O)[C@@H](NC(=O)OCc1ccccc1)C(C)C)C(=O)CF [ZVAD] (Cbz-Val-Ala-Asp(OMe)-CH2F)
- effect on efficiency of conversion (reprogramming efficiency) [1, 7]: not conversion efficiency

Molecule: hBcl-2: human BCL-2 encoded by a retroviral vector with the reporter GFP
- increase of β-III-tubulin+ cells compared to Ascl1/RFP expressing cells ([2]; co-transduced with Ascl1): 32 × fold
- co-infected cells (RFP and GFP) that were β-III-tubulin+ ([2]; co-transduced with Ascl1, fibroblasts from a person): up to 70%

Molecule: Cc1c(C)c2c(c(C)c1O)CC[C@@](C)(CCC[C@H](C)CCC[C@H](C)CCCC(C)C)O2 [α-tocopherol]
- effect on efficiency of conversion (reprogramming efficiency) [1, 7]: increase reprogramming efficiency
- effect on survival / cell death [1, 7]: reduces cell death

Molecule: C=C1/C(=C\C=C2/CCC[C@]3(C)[C@@H]([C@H](C)CCCC(C)(C)O)CC[C@@H]23)C[C@@H](O)C[C@@H]1O [calcitriol, reference compound]
- effect on morphology and maturation state of the neurons ([3]; Neurog2 + Bcl-2, calcitriol 200 ng orally, 23 days after viral infection): profoundly improved morphology and maturation state of the neurons
- proportion of NeuN+ neurons of all co-transduced cells ([3]; Neurog2 + Bcl-2 co-expression, calcitriol 200 ng orally 2 days after viral injection, 10 DPI): ~90%
- effect on reprogramming efficiency of human fibroblasts [2]: enhance reprogramming efficiency
- effect on reprogramming efficiency of astrocytes ([1]; 5 DPT): enhance reprogramming efficiency

B1: Vdr: murine vitamin D receptor over-expressed from retroviral vector RV-pCAG-Vdr-IRES-GFP (protein, listed as Mus musculus)
chain: MEAMAASTSLPDPGDFDRNVPRICGVCGDRATGFHFNAMTCEGCKGFFRRSMKRKALFTCPFNGDCRITKDNRRHCQACRLKRCVDIGMMKEFILTDEEVQRKREMIMKRKEEEALKDSLRPKLSEEQQHIIAILLDAHHKTYDPTYADFRDFRPPIRADVSTGSYSPRPTLSFSGDSSSNSDLYTPSLDMMEPASFSTMDLNEEGSDDPSVTLDLSPLSMLPHLADLVSYSIQKVIGFAKMIPGFRDLTSDDQIVLLKSSAIEVIMLRSNQSFTLDDMSWDCGSQDYKYDITDVSRAGHTLELIEPLIKFQVGLKKLNLHEEEHVLLMAICIVSPDRPGVQDAKLVEAIQDRLSNTLQTYIRCRHPPPGSHQLYAKMIQKLADLRSLNEEHSKQYRSLSFQPENSMKLTPLVLEVFGNEIS
- effect on reprogramming efficiency of human fibroblasts [2]: enhance reprogramming efficiency
- effect on reprogramming efficiency of astrocytes ([1]; 5 DPT): enhance reprogramming efficiency

B2: Neurog2: neurogenic transcription factor expressed from retroviral vector with RFP (protein, UniProt P70447 1-263, looked up)
Neurogenin-2: MFVKSETLELKEEEEVLMLLGSASPASATLTPMSSSADEEEDEELRRPGSARGQRGAEAEQGVQGSPASGAGGCRPGRLLGLMHECKRRPSRSRAVSRGAKTAETVQRIKKTRRLKANNRERNRMHNLNAALDALREVLPTFPEDAKLTKIETLRFAHNYIWALTETLRLADHCAGAGGLQGALFTEAVLLSPGAALGASGDSPSPPSSWSCTNSPASSSNSTSPYSCTLSPASPGSDVDYWQPPPPEKHRYAPHLPLARDCI
- acquisition of neuronal marker NeuN by singly transduced cells ([3]; 10 DPI): rarely acquired the neuronal marker NeuN
- proportion of neurons induced from MEFs, of all infected cells ([4]; Neurog2-based retroviral vectors, 15 days after infection): 10%

B3: Bcl-2: mouse Bcl-2 cDNA expressed from plasmid or retroviral vector; anti-apoptotic member of the Bcl-2 family (protein, listed as Mus musculus)
chain: MAQAGRTGYDNREIVMKYIHYKLSQRGYEWDAGDADAAPLGAAPTPGIFSFQPESNPMPAVHRDMAARTSPLRPLVATAGPALSPVPPVVHLTLRRAGDDFSRRYRRDFAEMSSQLHLTPFTARGRFATVVEELFRDGVNWGRIVAFFEFGGVMCVESVNREMSPLVDNIALWMTEYLNRHLHTWIQDNGGWDAFVELYGPSMRPLFDFSWLSLKTLLSLALVGACITLGAYLGHK
- fraction of cells with acquired neuronal morphology dying ([5]; Ascl1 + Bcl-2): about ⅓
- survival rate of remaining glial cells ([5]; Ascl1 + Bcl-2): 10%
- survival rate of successfully converted cells ([5]; Ascl1 + Bcl-2): 2/3
- effect on rate of proliferation during reprogramming ([5]; Ascl1 + Bcl-2, 150 h): did not affect the rate of proliferation during reprogramming
- effect on speed of astrocyte-to-neuron conversion ([5]; Ascl1 + Bcl-2, first 50-75 h of tracking): accelerated astrocyte-to-neuron conversion
- increase of proportion of cells successfully completing reprogramming into neurons ([5]; at 50 h of tracking): ~8 fold
- increase of proportion of cells successfully completing reprogramming into neurons ([5]; end of the tracking time period): over 3 fold
- effect on survival of cells during neuronal conversion ([5]; co-transduction with Ascl1, 150 hours imaging): robustly enhanced survival of cells during neuronal conversion
- neuronal conversion of co-transduced cells (GFP+/RFP+) ([3]; Neurog2-IRES-RFP and Bcl-2-IRES-GFP co-transduced, 10 DPI): many co-transduced cells (GFP+/RFP+) exhibited elongated neuronal-shape morphology and were immunoreactive for NeuN
- acquisition of neuronal marker NeuN by singly transduced cells ([3]; 10 DPI): rarely acquired the neuronal marker NeuN
- effect on expression of vdr [6]: induces expression of vdr
- effect on total number of surviving cells and reprogrammed neurons ([1]; co-transfected with Ascl1/RFP, 6 and 12 days): distinctly increased the total number of surviving cells and reprogrammed neurons
- neuronal conversion in MEFs (β-III-tubulin) ([4]; Ascl1-based retroviral vectors, 14 days after infection): 42.8%
